T1: 11-GalNAc-HP-Cy5 (VPSTPPTPSPS(GalNAc)TPPTPSPS), human IgA1 hinge peptide with GalNAc on the 11th residue, Cy5-labelled
T1 chain: VPSTPPTPSPSTPPTPSPS

T2: 4-GalNAc-HP (VPST(GalNAc)PPTPSPSTPPTPSPS), human IgA1 hinge peptide with GalNAc on the 4th residue
T2 chain: VPSTPPTPSPSTPPTPSPS

B1: C1Gal-T2 (entire ORF expressed in LSC cells, LSC-C1Gal-T2 enzyme source) (protein)
chain: MLSESSSFLKGVMLGSIFCALITMLGHIRIGHGNRMHHHEHHHLQAPNKEDILKISEDERMELSKSFRVYCIILVKPKDVSLWAAVKETWTKHCDKAEFFSSENVKVFESINMDTNDMWLMMRKAYKYAFDKYRDQYNWFFLARPTTFAIIENLKYFLLKKDPSQPFYLGHTIKSGDLEYVGMEGGIVLSVESMKRLNSLLNIPEKCPEQGGMIWKISEDKQLAVCLKYAGVFAENAEDADGKDVFNTKSVGLSIKEAMTYHPNQVVEGCCSDMAVTFNGLTPNQMHVMMYGVYRLRAFGHIFNDALVFLPPNGSDND
B2: FLAG tagged C1Gal-T3 fusion protein (C1Gal-T3 recombinant enzyme from pFLAG-C1Gal-T3, secreted by COS-1 cells) (protein)
chain: HIRHRGQTQDHEHHHLRPPNRNDFLNTSKVILLELSKSIRVFCIIFGESEDESYWAVLKETWTKHCDKAELYDTKNDNLFNIESNDRWVQMRTAYKYVFEKYGDNYNWFFLALPTTFAVIENLKYLLFTRDASQPFYLGHTVIFGDLEYVTVEGGIVLSRELMKRLNRLLDNSETCADQSVIWKLSEDKQLAICLKYAGVHAENAEDYEGRDVFNTKPIAQLIEEALSNNPQQVVEGCCSDMAITFNGLTPQKMEVMMYGLYRLRAFGHYFNDTLVFLPPVGSEND

Experiments:
[1] = molecular target: T1, 11-GalNAc-HP-Cy5 …
[2] = molecular target: various GalNAc α1-peptides
[3] = molecular target: T2, 4-GalNAc-HP …

Row | Protein | HPLC of the galactose transfer reaction product [1] | β1,3-galactosidase treatment of the reaction product, HPLC [1] | galactosyltransferase activity on acceptor substrates [2] | galactose transferring activity [3]
1 | B1 | the reaction product appeared as a new peak at 28.8 minutes | C1Gal-T2 was verified in vitro to be a core 1 synthetase, by which galactose is transferred to the nonreducing terminal of GalNAc α1-peptide through the β1,3 bond | the above experiment was repeated using various GalNAc α1-peptides as acceptor substrates. This resulted in similar reactions to that with pNp-α-GalNAc | –
2 | B2 | – | – | – | galactose transferring activity could be confirmed for 4-GalNAc-HP

— patent US20050221422
